In this assay the target is T1, recombinant human EZH2 protein, biotinylated (human, UniProt Q15910 1-746, biotin (Biotinylation Kit, Thermo Scientific 21329)).
T1 construct: Enhancer of zeste homolog 2 (EZH2), human recombinant protein, Origene TP302054; check the vendor's sheet; also called rhEZH2; source: bought: Origene (TP302054), biotinylated and desalted
The assay is described as follows: BLI; OctetRED; his-tagged rhRcn3 (5 µg/ml) immobilised on NTA biosensors; biotinylated rhEZH2 at 262.3, 131.1, 65.56 and 32.78 µg/ml in binding buffer; association and dissociation for 10 min at 25 °C. The note with it: both partners purified.

T1 sequence (Q15910 whole entry): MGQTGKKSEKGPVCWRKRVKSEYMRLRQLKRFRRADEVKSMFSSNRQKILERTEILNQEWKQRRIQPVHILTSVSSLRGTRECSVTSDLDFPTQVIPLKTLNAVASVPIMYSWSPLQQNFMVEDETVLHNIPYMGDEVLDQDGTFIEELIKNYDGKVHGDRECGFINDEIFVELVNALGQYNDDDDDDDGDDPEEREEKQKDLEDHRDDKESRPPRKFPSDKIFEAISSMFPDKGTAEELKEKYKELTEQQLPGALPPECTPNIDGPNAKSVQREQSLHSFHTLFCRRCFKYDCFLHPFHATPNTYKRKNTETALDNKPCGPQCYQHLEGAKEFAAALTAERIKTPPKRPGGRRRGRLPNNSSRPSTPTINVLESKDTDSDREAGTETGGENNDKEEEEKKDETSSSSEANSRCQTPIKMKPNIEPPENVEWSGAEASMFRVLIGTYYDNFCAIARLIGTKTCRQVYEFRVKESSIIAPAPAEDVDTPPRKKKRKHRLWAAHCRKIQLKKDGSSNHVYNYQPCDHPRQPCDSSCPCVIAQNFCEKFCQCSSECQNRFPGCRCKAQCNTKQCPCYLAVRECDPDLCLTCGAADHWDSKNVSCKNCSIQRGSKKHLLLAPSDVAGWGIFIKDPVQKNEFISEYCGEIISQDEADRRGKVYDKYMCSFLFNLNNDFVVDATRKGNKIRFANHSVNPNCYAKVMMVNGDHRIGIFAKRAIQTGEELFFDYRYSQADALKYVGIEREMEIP

B1: recombinant human Rcn3 with his-tag (natural protein, UniProt Q96D15 21-328, looked up)
chain: KPSPDAGPHGQGRVHQAAPLSDAPHDDAHGNFQYDHEAFLGREVAKEFDQLTPEESQARLGRIVDRMDRAGDGDGWVSLAELRAWIAHTQQRHIRDSVSAAWDTYDTDRDGRVGWEELRNATYGHYAPGEEFHDVEDAETYKKMLARDERRFRVADQDGDSMATREELTAFLHPEEFPHMRDIVIAETLEDLDRNKDGYVQVEEYIADLYSAEPGEEEPAWVQTERQQFRDFRDLNKDGHLDGSEVGHWVLPPAQDQPLVEANHLLHESDTDKDGRLSKAEILGNWNMFVGSQATNYGEDLTRHHDEL
notes: Reticulocalbin 3 (RCN3), human recombinant protein, Abcam ab276552; Construct limits are those of the vendor's product; also called rhRcn3; hrRcn3; source: bought: Abcam (ab276552)
A word on the Kd: it is the concentration at which binding is half-saturated. On to B1, for which the Kd stood at 1540 nM.
